± gives the uncertainty stated by the source.

B1: Zinc finger MYM-type protein 3, residues 589 to 668; numbered along this chain, Q14202 (parent)
chain: LSCHYCHSLFSGKPEVLDWQDQVFQFCCRDCCEDFKRLRGVVSQCEHCRQEKLLHEKLRFSGVEKSFCSEGCVLLYKQDF

Variants of B1 are the subject of the series. Put plainly: abundance fitness (aPCA) (normalised: wild type 0, dead -1); higher = more abundant; growth selection in yeast, the domain comes from the species named. To be noted: Homo sapiens.
With LSCHYCHSLFSGKPEWLDWQDQVFQFCCRDCCEDFKRLRGVVSQCEHCRQEKLLHEKLRFSGVEKSFCSEGCVLLYKQDF [V16W], the abundance fitness is -0.206 ± 0.055. The value for LSCHYCHSLFSGKPEVLDWQDQVFQFCCRDCCEDFKRLRGVVSQCEHCRQEKLLHEKLRFAGVEKSFCSEGCVLLYKQDF [S61A] was 0.284 ± 0.12; that for LSCHYCHSLFSGKPEVLDWQDQVFQFCCRDCCEDFKRLRGVVSQCEHCRQEKLLHEKLRFSGVEKSFCDEGCVLLYKQDF [S69D] was -0.702 ± 0.29.

As for LSCHYCHSLFSGKPAVLDWQDQVFQFCCRDCCEDFKRLRGVVSQCEHCRQEKLLHEKLRFSGVEKSFCSEGCVLLYKQDF [E15A], the abundance fitness is -0.075 ± 0.051.

On to LSCHYCHSLFSGKPMVLDWQDQVFQFCCRDCCEDFKRLRGVVSQCEHCRQEKLLHEKLRFSGVEKSFCSEGCVLLYKQDF [E15M], for which the abundance fitness was determined as 0.152 ± 0.089. The same measure for LSCHYCHSLFSGKPEVLDWQDQVFQFCCRDCCEDFKRLRGVVSQCEHCRQEKLLHEKLRFSGVEKSFCSEGCVLLYKQDP [F80P]: 0.525 ± 0.22. The value for LSCHYCHSLFSGKPEVLDWQDQVFQFCCRDCCEDLKRLRGVVSQCEHCRQEKLLHEKLRFSGVEKSFCSEGCVLLYKQDF [F35L] was -0.641 ± 0.055; that for LSCHYCHSLFSGKPEVLDWQDQVFQFCCRDCCEDFKRLRGVVSQCEHCRQEKLLHEKLRFSGVVKSFCSEGCVLLYKQDF [E64V] was -0.359 ± 0.3; that for LSCHYCHSLFSGKPEVLDWQDQVFQFCCRDCCEDFKRLRGVVSQCEHCRQEKQLHEKLRFSGVEKSFCSEGCVLLYKQDF [L53Q] was -0.255 ± 0.22.

In the case of LSCHYCHSLFSGKPEVLDWQDQVFQFCCRDCCEDFKRLRGVVSQCEHCRQEKLLHEKLRFSGVEKSFCSEGCVLLYKQQF [D79Q], the abundance fitness was found to be 0.475 ± 0.17. In the case of LSCHYCHSLFSGKPEVLDWQDQVFQFCCRDCCEDFNRLRGVVSQCEHCRQEKLLHEKLRFSGVEKSFCSEGCVLLYKQDF [K36N], the abundance fitness was -0.251 ± 0.073. The value for LSCHYCHSLFSGKPEVLDWQDQQFQFCCRDCCEDFKRLRGVVSQCEHCRQEKLLHEKLRFSGVEKSFCSEGCVLLYKQDF [V23Q] was 0.246 ± 0.044. The value for LSCHYCHSLFSGKPEVLDWQDQMFQFCCRDCCEDFKRLRGVVSQCEHCRQEKLLHEKLRFSGVEKSFCSEGCVLLYKQDF [V23M] was 0.338 ± 0.047; that for LSCHYCHSLFSGKPEVLDWQDQVFQFCCRDCCEDFKRLRGVVSQCEHCVQEKLLHEKLRFSGVEKSFCSEGCVLLYKQDF [R49V] was -0.785 ± 0.19.

In the case of LSCHYCHSLFSGKPEVLDWQDQVFQFCCRDCCEDFKRLRGVRSQCEHCRQEKLLHEKLRFSGVEKSFCSEGCVLLYKQDF [V42R], the abundance fitness was -0.085 ± 0.088. The value for LSCHYCHSLFSGKPEVLDWQDQVFQFCCRDCCEDFKRLRGVTSQCEHCRQEKLLHEKLRFSGVEKSFCSEGCVLLYKQDF [V42T] was 0.388 ± 0.12; that for LSCHYCHSLFSGKPEVLDWQDQVFQFCCRDCCEDFKRLRGVQSQCEHCRQEKLLHEKLRFSGVEKSFCSEGCVLLYKQDF [V42Q] was -0.203 ± 0.24.

With LSCHYGHSLFSGKPEVLDWQDQVFQFCCRDCCEDFKRLRGVVSQCEHCRQEKLLHEKLRFSGVEKSFCSEGCVLLYKQDF [C6G], the abundance fitness was -1.05 ± 0.07. The same measure for LSCHYCHSLFSGKREVLDWQDQVFQFCCRDCCEDFKRLRGVVSQCEHCRQEKLLHEKLRFSGVEKSFCSEGCVLLYKQDF [P14R]: -0.459 ± 0.048; for LSCHYCHSLTSGKPEVLDWQDQVFQFCCRDCCEDFKRLRGVVSQCEHCRQEKLLHEKLRFSGVEKSFCSEGCVLLYKQDF [F10T]: -0.16 ± 0.049. The same measure for LSCHYCHSLHSGKPEVLDWQDQVFQFCCRDCCEDFKRLRGVVSQCEHCRQEKLLHEKLRFSGVEKSFCSEGCVLLYKQDF [F10H]: -0.043 ± 0.082.

As for LSCHYCHSLFSGKPEVLDWQDQVFQFCCRDCCKDFKRLRGVVSQCEHCRQEKLLHEKLRFSGVEKSFCSEGCVLLYKQDF [E33K], the abundance fitness is -0.353 ± 0.066. The same measure for LSCHYCHSLFSGKPEVLDWQDQVFQFCCRDCCEDFKRLRGVVVQCEHCRQEKLLHEKLRFSGVEKSFCSEGCVLLYKQDF [S43V]: 0.286 ± 0.11; for LSCHYCHSLFSGKPEVLDWQDQVFQFCCRDCCEDFKRLRGVVSQCEHCRQEKLLHFKLRFSGVEKSFCSEGCVLLYKQDF [E56F]: 0.467 ± 0.23; for LSCHYCHSLFSGKPEVLDWQDQVFQFCCRDCCEDFKRLRGVVSQCEHCRQEKLLHPKLRFSGVEKSFCSEGCVLLYKQDF [E56P]: -0.288 ± 0.26. The same measure for LSCHYCHSLFSGKPEVLDWQDGVFQFCCRDCCEDFKRLRGVVSQCEHCRQEKLLHEKLRFSGVEKSFCSEGCVLLYKQDF [Q22G]: 0.253 ± 0.041; for LSCHYCHSLFSGKPEVLDWQDFVFQFCCRDCCEDFKRLRGVVSQCEHCRQEKLLHEKLRFSGVEKSFCSEGCVLLYKQDF [Q22F]: 0.047 ± 0.068. Regarding LSCHYCHSLFSGKPEVLDWQDQVFQFCCFDCCEDFKRLRGVVSQCEHCRQEKLLHEKLRFSGVEKSFCSEGCVLLYKQDF [R29F], the abundance fitness was 0.095 ± 0.056.

On to LSCHYCHSLFSGKPEVLDWQDQVFQFCCRDCCEDFKRLRGVVSQCEHCRQEKLLHEKLRFSGVEKSFCSEGCWLLYKQDF [V73W], for which the abundance fitness is -0.167 ± 0.18. The value for LSCHYCHSLFSGKPEVLDWQDQVFQFCCRYCCEDFKRLRGVVSQCEHCRQEKLLHEKLRFSGVEKSFCSEGCVLLYKQDF [D30Y] was -0.164 ± 0.091; that for LSCHYCHSLFSGKPEVFDWQDQVFQFCCRDCCEDFKRLRGVVSQCEHCRQEKLLHEKLRFSGVEKSFCSEGCVLLYKQDF [L17F] was -0.079 ± 0.059; that for LSCHYCHSLFSGKPEVDDWQDQVFQFCCRDCCEDFKRLRGVVSQCEHCRQEKLLHEKLRFSGVEKSFCSEGCVLLYKQDF [L17D] was -0.332 ± 0.06. The same measure for LSCHYCHSLFSGKPEVLDWQDQVFQFCCRDCCEDFKRLRGVVSQCEHCRQLKLLHEKLRFSGVEKSFCSEGCVLLYKQDF [E51L]: -0.119 ± 0.12; for LSCHYCHSLFSGPPEVLDWQDQVFQFCCRDCCEDFKRLRGVVSQCEHCRQEKLLHEKLRFSGVEKSFCSEGCVLLYKQDF [K13P]: 0.042 ± 0.059.

LSIHYCHSLFSGKPEVLDWQDQVFQFCCRDCCEDFKRLRGVVSQCEHCRQEKLLHEKLRFSGVEKSFCSEGCVLLYKQDF [C3I]: the abundance fitness is -1.02 ± 0.26. The value for LSCHYCHSLFSGKPEVLDWQDQVFQFCCRDCCEDFKRRRGVVSQCEHCRQEKLLHEKLRFSGVEKSFCSEGCVLLYKQDF [L38R] was 0.087 ± 0.053; that for LSCHYCHSKFSGKPEVLDWQDQVFQFCCRDCCEDFKRLRGVVSQCEHCRQEKLLHEKLRFSGVEKSFCSEGCVLLYKQDF [L9K] was -0.096 ± 0.056.

The record behind these values is the Human Domainome abundance scans (Beltran et al. 2025).
